Test [1] addresses T1, TLR9 tagged at the C terminus with enhanced green fluorescent protein, Q9NR96.
T1 chain: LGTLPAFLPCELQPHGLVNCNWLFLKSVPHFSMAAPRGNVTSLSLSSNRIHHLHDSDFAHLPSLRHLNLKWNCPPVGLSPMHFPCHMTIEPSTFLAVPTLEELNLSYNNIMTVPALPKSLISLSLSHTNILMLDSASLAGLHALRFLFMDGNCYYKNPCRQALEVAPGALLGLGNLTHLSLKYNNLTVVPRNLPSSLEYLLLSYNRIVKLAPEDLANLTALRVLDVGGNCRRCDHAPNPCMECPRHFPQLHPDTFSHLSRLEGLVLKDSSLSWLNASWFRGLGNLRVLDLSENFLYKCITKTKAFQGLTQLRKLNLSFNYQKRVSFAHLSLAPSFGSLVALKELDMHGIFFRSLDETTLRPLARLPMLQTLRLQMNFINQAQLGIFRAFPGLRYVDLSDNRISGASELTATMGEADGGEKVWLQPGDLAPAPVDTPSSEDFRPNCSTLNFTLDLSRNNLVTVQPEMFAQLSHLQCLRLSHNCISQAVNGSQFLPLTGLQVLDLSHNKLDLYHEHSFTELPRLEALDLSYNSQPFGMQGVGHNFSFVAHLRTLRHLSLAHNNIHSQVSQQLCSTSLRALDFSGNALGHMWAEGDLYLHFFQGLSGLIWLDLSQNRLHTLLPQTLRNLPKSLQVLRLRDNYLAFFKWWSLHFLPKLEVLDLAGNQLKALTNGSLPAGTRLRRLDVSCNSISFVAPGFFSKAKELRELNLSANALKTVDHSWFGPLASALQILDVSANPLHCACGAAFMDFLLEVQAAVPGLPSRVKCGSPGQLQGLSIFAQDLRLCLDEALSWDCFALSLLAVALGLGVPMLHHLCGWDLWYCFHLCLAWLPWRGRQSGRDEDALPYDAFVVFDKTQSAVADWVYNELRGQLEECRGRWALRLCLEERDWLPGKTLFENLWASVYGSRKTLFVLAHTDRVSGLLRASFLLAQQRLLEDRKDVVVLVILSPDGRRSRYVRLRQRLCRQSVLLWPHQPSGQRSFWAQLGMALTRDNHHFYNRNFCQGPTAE
In words: two-dimensional photon counting histogram (2dPCH); live HEK 293 cells expressing TLR9-GFP, incubated with Cy5-labelled CpG or non-CpG DNA; single-component fit; brightness in the green and red channels; bin size 50 µs. Conditions: remark: other sources report otherwise.

The target of test [2] is T1, TLR9 tagged at the C terminus with …. The test can be described thus: photon counting histogram (PCH); live HEK 293 cells expressing TLR9-GFP; molecular brightness compared with GFP monomer; two-component global fit with the brightness of GFP monomer and GFP dimer fixed; bin size 50 µs; without DNA, with CpG DNA or with non-CpG DNA; monomer to dimer. Conditions: remark: other sources report otherwise.

Data on 1 molecule can be found in PMC3070698.

B1: TLR9 tagged at the C terminus with enhanced green fluorescent protein, Q9NR96 26-1032 (receptor)
chain: T1 chain
Usually stoichiometry N stands for a count of units in the complex or per binding partner. B1: in test [1], the stoichiometry N turned out to be 2. In test [2], the percent of TLR9 as dimers (no DNA) stood at 79.1%, the percent of TLR9 as dimers (with CpG DNA) was found to be 82.6%, the percent of TLR9 as dimers (with non-CpG DNA) stood at 82.6% and the stoichiometry N is 2.
